Here are results for 1 molecule from patent publication US20240384250A1, “FIBROBLAST GROWTH FACTOR 23 MODULATING COMPOUNDS” (THE UAB RESEARCH FOUNDATION, priority 2021, published 2024).

Read-outs that look alike come from different tables or passages of the source.

In assay [1] the target is T1, FGF19 (Homo sapiens, UniProt O95750).
T1 construct: purchased R&D Systems 969FG025/CF
The assay is described as follows: Co-immunoprecipitation of FGF with FLAG-tagged sKL on anti-FLAG beads. It counts as binding. On the procedure: (§1) To study the interaction between FLAG-tagged sKL and different FGF isoforms, co-immunoprecipitation studies were conducted. FLAG beads (A2220, Sigma-Aldrich) were used at 50 ul of 50% stock slurry per sample. Beads were washed 5× with activity buffer (50 mM Tris [pH 7.4], 200 mM NaCl, 0.01% Tween 20, Sigma-Aldrich). Bead spin-down assays were all performed for 2 minutes at 5000 g. Fifty microliters of a 50% slurry of beads per sample was resuspended in 1 ml of activity buffer in a 1.5-ml snap cap tube. One microgram of FLAG-tagged sKL or Carboxy-terminal bacterial alkaline phosphatase (BAPC; P7457, Sigma-Aldrich) was incubated with the beads for 1 hour on a bead rotator. Beads were then pelleted at 5000 g for 2 minutes and washed 5× with activity buffer. Beads were resuspended in 1 ml of activity buffer and samples with 500 ng of FGF. Beads were incubated for 1 hour on a tube rotator, and beads were pelleted and washed as before. One hundred microliters of I× Laemmli sample buffer (1610737, Bio-Rad) with 1.42 M 2-mercaptoethanol was added, and samples were boiled for 5 minutes and analyzed using sodium dodecylsulfate-polyacrylamide gel electrophoresis (SDS-PAGE) and Western blotting, as described below herein.
(§2) The sample (20 μl) was loaded onto Mini-PROTEAN TGX Precast Gel 4-20% for experiments with <9 samples (4568094, Bio-Rad) or Criterion TGX Precast Gel 4-20% (5678094, Bio-Rad) for experiments with >9 samples. Gels were run in 1× Tris/Glycine/SDS buffer (1610732, Bio-Rad) at 150 V and stopped when the sample dye reached the end of the gel. Gels were removed and electrotransferred via a semi-dry cassette (1703940, Bio-Rad) in I× Tris/Glycine buffer (1610734, Bio-Rad) with 20% methanol. Gels were transferred onto polyvinylidene diflouride membranes (IPVH00010, Millipore) at 20 V for 1 hour. Membranes were then blocked in 5% dried milk with 0.5% Tween 20 diluted in Tris-buffered saline (TBST; pH 7.5) for 1 hour and probed with antibodies against specific antigens at 1:1000 in TBST with 5% dried milk. Blots were washed 3× for 5 minutes in TBST and probed with HRP-coupled secondary antibodies against specific species at 1:10,000 in TBST with 5% dried milk. Membranes were imaged on the SRX-101A X-ray film developer (Konica Minolta).

The target in assay [2] is T2, FGF23 (Homo sapiens, UniProt Q9GZV9).
T2 construct: purchased R&D Systems 2604FG025/CF (human) or 2629FG025/CF (mouse)
T2 sequence (Q9GZV9 25-251): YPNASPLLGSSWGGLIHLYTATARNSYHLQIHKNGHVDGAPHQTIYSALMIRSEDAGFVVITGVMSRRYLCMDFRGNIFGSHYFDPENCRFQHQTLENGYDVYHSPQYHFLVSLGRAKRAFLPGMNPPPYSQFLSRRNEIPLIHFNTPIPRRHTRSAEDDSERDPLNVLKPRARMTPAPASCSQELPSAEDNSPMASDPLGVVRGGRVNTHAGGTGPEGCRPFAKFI
The description is as above. Type of assay: binding. The settings on record: absence of FGFR. How it is done:
as §1, §2

Assay [3] has as its system mouse model of CKD. The settings on record: administration of sKL; cited from earlier work.

T1 sequence (O95750 25-216): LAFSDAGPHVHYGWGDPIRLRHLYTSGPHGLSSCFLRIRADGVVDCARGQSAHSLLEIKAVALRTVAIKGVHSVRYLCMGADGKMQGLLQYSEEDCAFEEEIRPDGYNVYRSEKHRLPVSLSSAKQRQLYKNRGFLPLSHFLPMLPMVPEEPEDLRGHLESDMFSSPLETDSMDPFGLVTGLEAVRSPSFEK

B1: sKL: recombinant soluble α-klotho ectodomain, mouse aa 35-982 and human aa 34-981, FLAG- or Strep/His-tagged, purified from HEK293 cells (protein)
chain: EPGDGAQTWARFSRPPAPEAAGLFQGTFPDGFLWAVGSAAYQTEGGWQQHGKGASIWDTFTHHPLAPPGDSRNASLPLGAPSPLQPATGDVASDSYNNVFRDTEALRELGVTHYRFSISWARVLPNGSAGVPNREGLRYYRRLLERLRELGVQPVVTLYHWDLPQRLQDAYGGWANRALADHFRDYAELCFRHFGGQVKYWITIDNPYVVAWHGYATGRLAPGIRGSPRLGYLVAHNLLLAHAKVWHLYNTSFRPTQGGQVSIALSSHWINPRRMTDHSIKECQKSLDFVLGWFAKPVFIDGDYPESMKNNLSSILPDFTESEKKFIKGTADFFALCFGPTLSFQLLDPHMKFRQLESPNLRQLLSWIDLEFNHPQIFIVENGWFVSGTTKRDDAKYMYYLKKFIMETLKAIKLDGVDVIGYTAWSLMDGFEWHRGYSIRRGLFYVDFLSQDKMLLPKSSALFYQKLIEKNGFPPLPENQPLEGTFPCDFAWGVVDNYIQVDTTLSQFTDLNVYLWDVHHSKRLIKVDGVVTKKRKSYCVDFAAIQPQIALLQEMHVTHFRFSLDWALILPLGNQSQVNHTILQYYRCMASELVRVNITPVVALWQPMAPNQGLPRLLARQGAWENPYTALAFAEYARLCFQELGHHVKLWITMNEPYTRNMTYSAGHNLLKAHALAWHVYNEKFRHAQNGKISIALQADWIEPACPFSQKDKEVAERVLEFDIGWLAEPIFGSGDYPWVMRDWLNQRNNFLLPYFTEDEKKLIQGTFDFLALSHYTTILVDSEKEDPIKYNDYLEVQEMTDITWLNSPSQVAVVPWGLRKVLNWLKFKYGDLPMYIISNGIDDGLHAEDDQLRVYYMQNYINEALKAHILDGINLCGYFAYSFNDRTAPRFGLYRYAADQFEPKASMKHYRKIIDSNGFPGPETLERFCPEEFTVCTECSFFHTRKS
modifications: left off: small tags and cut ends
notes: recombinant soluble α-klotho ectodomain, mouse aa 35-982 and human aa 34-981, FLAG- or Strep/His-tagged, purified from HEK293 cells
For the molecule B1, the “FGF19 co-precipitation with immobilized FLAG-sKL” value was “did not bind” in assay [1] and “does not binds FGF19” in assay [1] (listed as FLAG-sKL). The results for the “FGF23 co-precipitation with immobilized FLAG-sKL” value in assay [2] (listed as FLAG-sKL) and in assay [2] (listed as FLAG-tagged sKL) were “bound FGF23” and “FGF23 could be co-precipitated”, respectively. Also, the “development of ventricular arrhythmias” value in assay [3] is listed as “protects”.
